According to PMC10626271 (FEBS Open Bio, 2023):

Legend:
[1] = target: T1, C-terminal domain of ASPL (ASPL-C, residues 313-553) (human, UniProt Q9BZE9 313-553); assay: SPR; ASPL-C immobilised on CM5 chip by amine coupling (1000 RU); analytes 0.6 to 83 μM in 10 mM HEPES, 150 mM NaCl, 0.005% Tween20, pH 7.4; BIAcore 3000, duplicates; one-site specific binding fit of the response against concentration; no saturation reached; conditions: both partners purified
T1 construct: the 26 kDa printed for ASPL-C in the cross-linking experiment fits the chain without GST; The cited crystal structure covers residues 317-499; source: E. coli BL21 DE3 Rosetta2, purified (glutathione-Sepharose 4B, Superdex 75 SEC)
T1 sequence (looked up): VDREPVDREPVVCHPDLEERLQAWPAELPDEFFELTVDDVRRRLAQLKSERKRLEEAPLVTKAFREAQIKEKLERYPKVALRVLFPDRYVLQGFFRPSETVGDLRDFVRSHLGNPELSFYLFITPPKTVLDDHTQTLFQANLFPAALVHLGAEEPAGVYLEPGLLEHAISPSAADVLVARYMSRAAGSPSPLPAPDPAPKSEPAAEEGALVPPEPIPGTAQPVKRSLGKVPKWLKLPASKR

[2] = target: the molecule itself; assay: SEC; Superdex 75 increase 10/300 of Ni-NTA purified Trx-ICH_(GLUT4)

Kd [1]: 68 µM
B1: Thioredoxin fused C-terminally with human GLUT4 intracellular helical bundle (residues 225-271, I232C/K264C) (domain or fragment, UniProt P14672 225-271, looked up)
chain: ESPRYLYCIQNLEGPARKSLKRLTGWADVSGVLAELKDECRKLERER
notes: human GLUT4 intracellular helical bundle (ICH) between TM6 and TM7, residues 225-271, with I232C and K264C to form a stabilising disulphide bond; Synthetic gene (GenScript) in pET24a; 18 kDa monomer; a 36 kDa peak was also seen on SEC; also called Trx-ICH_(GLUT4); ICH_(GLUT4); source: E. coli TUNER (DE3), purified (Ni-NTA, Superdex 75 SEC; monomer peak used); not shown: Trx (thioredoxin), …
stoichiometry N [2]: 2
